Test results published in paper PMC4895024.
One block for each substance: values may come before it.

Experiments:
[1] = biological target: integrin αvβ3 on HUVEC cells, P06756;P05106; assay: cell attachment assay (cells on protein-coated plate)
[2] = biological target: integrin αvβ3 exogenously expressed on CHO and COS-7 cells, P06756;P05106; assay: as above; details: read off a plot
[3] = biological target: integrin αIIbβ3 exogenously expressed on CHO and COS-7 cells, P08514;P05106; assay: as above; details: read off a plot
[4] = biological target: ProAgio (D1-CD2 variant 3) (UniProt P06729); assay: as above; details: CHO cells expressing αvβ3 wild type or β3-KKQ; parent: est. 190; read off a plot; scale: cells attached/field
[5] = biological target: ProAgio (D1-CD2 variant 3) (not stated (human and rat D1-CD2 are named)) (UniProt P06729); assay: cell attachment assay; culture plates coated with ProAgio; cells cultured 35 min, washed three times, attached cells counted per view field; some runs with 5 μM Cilengitide or 40 μg/ml antibody LM609
ProAgio (D1-CD2 variant 3) (not stated (human and rat D1-CD2 are named)), sequence (P06729 25-206, change not shown): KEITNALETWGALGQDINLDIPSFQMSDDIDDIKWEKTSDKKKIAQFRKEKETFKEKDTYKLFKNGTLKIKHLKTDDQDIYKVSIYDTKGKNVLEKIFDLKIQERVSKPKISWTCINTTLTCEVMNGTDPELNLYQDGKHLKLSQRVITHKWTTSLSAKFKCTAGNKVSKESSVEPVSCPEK

- response (cells attached/field) ([1]; 40 μg ml−1 antibody LM609 (bar is labelled 'Cilengitide' in the image), read off a plot): 280
- response (cells attached/field) ([1]; BSA as control, read off a plot): 310
- response (cells attached/field) ([1]; IgG as control, read off a plot): 340
- response (cells attached/field) ([1]; in the presence of 5 μM of Cilengitide, read off a plot): 230
- response (cells attached/field) ([1]; parent: est. 45, read off a plot): 290
- response (cells attached/field) ([2]; CHO cells expressing αvβ3 (CHOαVβ3), parent: est. 100): 350
- response (cells attached/field) ([2]; CHO cells expressing αvβ3): 280
- response (cells attached/field) ([2]; COS-7 cells expressing αvβ3 (COS7αVβ3), parent: est. 90): 310
- response (cells attached/field) ([2]; COS-7 cells expressing αvβ3): 350
- response (cells attached/field) ([3]; CHO cells expressing αIIbβ3): 50
- response (cells attached/field) ([3]; COS-7 cells expressing αIIbβ3): 50
Substance: D1-CD2 D99N; I102V; Q103I; E104I; E83T; T9V; W10Q; G11M; A12K

- response [4]: 44
Substance: integrin αvβ3 exogenously expressed on CHO and COS-7 cells (from UniProt P06756;P05106) β3-KKQ

- fold less attachment than αvβ3-expressing cells [5]: > 3 fold
Substance: integrin αvβ5 expressed on COS-7 cells (from UniProt P06756 31-1048; P18084 24-799) (receptor)
